Reference: US20180296691A1 (Pfizer, published 2018)
Numbering of substitutions follows the chain as printed.

What was measured:
[1] = target: T1, human EFNA4 expressed on cells (human, UniProt P52798 26-170); assay: flow cytometry, MEC1 B-CLL cells (endogenous EFNA4), 10 µg/ml antibody
T1 sequence: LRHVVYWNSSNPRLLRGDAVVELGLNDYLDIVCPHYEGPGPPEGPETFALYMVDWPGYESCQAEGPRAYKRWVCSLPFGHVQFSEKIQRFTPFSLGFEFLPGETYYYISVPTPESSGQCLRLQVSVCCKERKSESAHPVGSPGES

[2] = target: T1, human EFNA4 expressed on cells; assay: flow cytometry, MX-1 breast cells (endogenous EFNA4), 10 µg/ml antibody
[3] = target: T1, human EFNA4 expressed on cells; assay: flow cytometry, HCC202 breast cells (endogenous EFNA4), 10 µg/ml antibody
[4] = target: T1, human EFNA4 expressed on cells; assay: flow cytometry, Z138 mantle cell lymphoma cells (endogenous EFNA4), 10 µg/ml antibody
[5] = target: T2, monomeric human Ephrin-A4 (human), P52798; assay: SPR (BIAcore 2000), Eph receptor captured via anti-human antibody capture kit, monomeric human Ephrin-A4 12-400 nM as analyte, steady state affinity fit; settings: remark: other sources report otherwise
T2 chain: T1 sequence

[6] = target: T1, human EFNA4 expressed on cells; assay: cell-based or functional assay
[7] = target: T1, human EFNA4 expressed on cells; assay: cell-based or functional assay; remark: listed apart in the source
[8] = target: T3, recombinant human EFNA4 extracellular domain fused to a histidine tag (human, UniProt P52798 26-170); assay: SPR (BIAcore 2000), recombinant EFNA4 ECD-His
T3 construct: also called hEFNA4-ECD-His; not shown: histidine tag
T3 sequence: T1 sequence

[9] = target: T4, recombinant cynomolgus monkey EFNA4 extracellular domain fused to a histidine tag (cynomolgus monkey, UniProt A0A2K5U3S7 84-228); assay: SPR (BIAcore 2000), recombinant EFNA4 ECD-His
T4 construct: extracellular domain; not shown: histidine tag
T4 sequence: T1 sequence with L1V, Y69F

[10] = target: T5, recombinant rat EFNA4 extracellular domain fused to a histidine tag (rat, UniProt D3ZEN1 26-173); assay: SPR (BIAcore 2000), recombinant EFNA4 ECD-His
T5 construct: extracellular domain; also called rat antigen; not shown: histidine tag
T5 sequence: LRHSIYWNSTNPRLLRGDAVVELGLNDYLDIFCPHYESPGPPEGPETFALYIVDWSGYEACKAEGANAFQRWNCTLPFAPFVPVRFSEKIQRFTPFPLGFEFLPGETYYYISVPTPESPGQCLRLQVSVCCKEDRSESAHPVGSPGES

[11] = target: T6, human EFNA4 antigen (ephrin-A4 ligand) (human, UniProt P52798 26-170); assay: Hu Ag Affinity (Humanized mAb); method not stated
T6 construct: also called Hu Ag
T6 sequence: T1 sequence

[12] = target: T7, Ephrin-A1-His (R&D) (UniProt P20827 19-182); assay: direct ELISA, Ephrin-A1-His coated on the plate, biotin-labeled huE22, streptavidin-HRP, OD450
T7 construct: also called Ephrin-A1 (EFNA1); EFNA1; not shown: His tag
T7 sequence (looked up): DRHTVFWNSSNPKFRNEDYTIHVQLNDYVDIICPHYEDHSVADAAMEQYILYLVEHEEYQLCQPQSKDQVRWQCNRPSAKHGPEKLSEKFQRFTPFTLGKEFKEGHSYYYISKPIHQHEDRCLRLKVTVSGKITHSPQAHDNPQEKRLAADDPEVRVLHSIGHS

[13] = target: T8, Ephrin-A3-huFc (R&D) (UniProt P52797 23-214, limits assumed); assay: direct ELISA, Ephrin-A3-huFc coated on the plate, biotin-labeled huE22, streptavidin-HRP, OD450
T8 construct: also called Ephrin-A3 (EFNA3); EFNA3; not shown: human Fc
T8 sequence (looked up): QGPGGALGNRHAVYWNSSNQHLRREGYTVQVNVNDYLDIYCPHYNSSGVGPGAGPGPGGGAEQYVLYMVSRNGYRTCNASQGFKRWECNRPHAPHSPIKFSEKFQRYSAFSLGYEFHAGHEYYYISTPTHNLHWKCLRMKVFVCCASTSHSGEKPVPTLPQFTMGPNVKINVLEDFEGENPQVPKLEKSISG

[14] = target: T9, Ephrin-A4-huFc (R&D) (human, UniProt P52798 26-170); assay: direct ELISA, Ephrin-A4-huFc coated on the plate, biotin-labeled huE22, streptavidin-HRP, OD450
T9 construct: bought reagent; also called Ephrin-A4 (EFNA4); EFNA4; not shown: human Fc
T9 sequence: T1 sequence

[15] = target: T10, Ephrin-A5-huFc (R&D) (UniProt P52803 21-203); assay: direct ELISA, Ephrin-A5-huFc coated on the plate, biotin-labeled huE22, streptavidin-HRP, OD450
T10 construct: also called EFNA5; not shown: human Fc
T10 sequence (looked up): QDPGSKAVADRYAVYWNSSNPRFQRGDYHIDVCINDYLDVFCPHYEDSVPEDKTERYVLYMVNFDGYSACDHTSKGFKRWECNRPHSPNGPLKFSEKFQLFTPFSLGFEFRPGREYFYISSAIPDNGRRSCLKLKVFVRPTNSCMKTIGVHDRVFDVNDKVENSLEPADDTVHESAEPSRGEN

[16] = target: T1, human EFNA4 expressed on cells; assay: cell-based or functional assay; remark: listed apart in the source
[17] = target: T7, Ephrin-A1-His (R&D); assay: direct ELISA, Ephrin-A1-His coated on the plate, biotin-labeled huE47, streptavidin-HRP, OD450
Experimental: (§1) Antibody binding was determined by direct ELISA with Ephrin-A1-His, Ephrin-A3-huFc, Ephrin-A4-huFc and Ephrin-A5-huFc (all from R&D) coated on BioOne Microlon (Greiner) plates in PBS overnight at 4° C.

[18] = target: T8, Ephrin-A3-huFc (R&D); assay: direct ELISA, Ephrin-A3-huFc coated on the plate, biotin-labeled huE47, streptavidin-HRP, OD450
Experimental: as §1

**Q.** Which results are given for Non-binding control IgG (antibody)?
**A.** Mean Channel Fluorescent (MCF) [1]: 7.2; Mean Channel Fluorescent (MCF) [2]: 3.6; Mean Channel Fluorescent (MCF) [3]: 15.6; Mean Channel Fluorescent (MCF) [4]: 7.4

B1: recombinant EphA1 receptor (commercially available), P21709 26-547 (receptor, UniProt P21709 26-547, looked up)
chain: KEVTLMDTSKAQGELGWLLDPPKDGWSEQQQILNGTPLYMYQDCPMQGRRDTDHWLRSNWIYRGEEASRVHVELQFTVRDCKSFPGGAGPLGCKETFNLLYMESDQDVGIQLRRPLFQKVTTVAADQSFTIRDLVSGSVKLNVERCSLGRLTRRGLYLAFHNPGACVALVSVRVFYQRCPETLNGLAQFPDTLPGPAGLVEVAGTCLPHARASPRPSGAPRMHCSPDGEWLVPVGRCHCEPGYEEGGSGEACVACPSGSYRMDMDTPHCLTCPQQSTAESEGATICTCESGHYRAPGEGPQVACTGPPSAPRNLSFSASGTQLSLRWEPPADTGGRQDVRYSVRCSQCQGTAQDGGPCQPCGVGVHFSPGARGLTTPAVHVNGLEPYANYTFNVEAQNGVSGLGSSGHASTSVSISMGHAESLSGLSLRLVKKEPRQLELTWAGSRPRSPGANLTYELHVLNQDEERYQMVLEPRVLLTELQPDTTYIVRVRMLTPLGPGPFSPDHEFRTSPPVSRGLTGGE
**Q.** B1 was tested. Which Kd [5] did it give?
**A.** 414 nM

B2: humanized anti-EFNA4 antibody huE22 (antibody, human IgG1, kappa, V domains shown)
VH: QVQLVQSGAEVKKPGASVKVSCKASGYTFTGYYIHWVRQAPGQGLEWMGWIYPGNFNTKYNERFKGRVTMTTDTSTSTAYMELRSLRSDDTAVYYCAREDGSPYYAMDYWGQGTSVTVSS
VL: DIVMTQTPLSLSVTPGQPASISCRSSQSLVHSNGNTFLYWYLQKPGQSPQLLIYRVSNRFSGVPDRFSGSGSGTDFTLKISRVEAEDVGVYYCFQATHVPWTFGGGTKVEIKR
notes: human IgG1 / kappa; also called huE22 mAb; unconjugated huE22
**Q.** Which results are given for B2?
**A.** specificity of saporin-mediated cytotoxicity, HEK293T-EFNA4 over HEK293T parental cells [6]: ~60 fold; Saporin-mediated cytotoxicity IC50 (MTS viability), HEK293T parent cells, huE22 plus saporin-conjugated anti-human Fab [7]: 174 ng/mL; Saporin-mediated cytotoxicity IC50 (MTS viability), HEK293T-EFNA4 cells, huE22 plus saporin-conjugated anti-human Fab [7]: 3 ng/mL; Kd [8]: 1.7 nM; koff [8]: 0.0033 s⁻¹; kon [8]: 1.9e+06 M⁻¹ s⁻¹; Kd [9]: 2.1 nM; koff [9]: 0.0078 s⁻¹; kon [9]: 3.8e+06 M⁻¹ s⁻¹; binding result [10]: no binding (tested: 400 nM antigen); Kd [11]: 3.8 nM; binding result [12]: no binding (tested: 1000 ng/ml); binding result [13]: no binding (tested: 1000 ng/ml); EC50 (read off the curve) [14]: ~4 ng/mL; binding result [15]: no binding (tested: 1000 ng/ml)

B3: huE22-AcBut-CM antibody-drug conjugate (antibody, V domains shown)
VH: B2 VH
VL: B2 VL
modifications: AcBut-N-acetyl-gamma-calicheamicin dimethyl hydrazide (AcBut-CM) conjugated via lysine residues (sites not given); average DAR about 3 to 5
notes: also called huE22-AcBut-CM ADC; huE22-ActBut-CM
**Q.** B3 was tested. Which “Anti-EFNA4-AcBut-CM cytotoxicity IC50 (MTS viability, 96 h), HEK293T-EFNA4 cells” value [16] did it give?
**A.** 1 ng/mL

**Q.** What about the Kd [8] of the same molecule?
**A.** 2.3 nM

**Q.** And the koff [8]?
**A.** 0.0061 s⁻¹

**Q.** And the kon [8]?
**A.** 2.6e+06 M⁻¹ s⁻¹

**Q.** What about the Kd [9] of the same molecule?
**A.** 2.7 nM

**Q.** What about the koff [9] of the same molecule?
**A.** 0.011 s⁻¹

**Q.** And the kon [9]?
**A.** 4.2e+06 M⁻¹ s⁻¹

**Q.** Does B3 bind [10]?
**A.** no binding (tested: 400 nM antigen)

B4: recombinant EphB3 receptor (commercially available), P54753 34-559 (receptor, UniProt P54753 34-559, looked up)
chain: GCRALEETLMDTKWVTSELAWTSHPESGWEEVSGYDEAMNPIRTYQVCNVRESSQNNWLRTGFIWRRDVQRVYVELKFTVRDCNSIPNIPGSCKETFNLFYYEADSDVASASSPFWMENPYVKVDTIAPDESFSRLDAGRVNTKVRSFGPLSKAGFYLAFQDQGACMSLISVRAFYKKCASTTAGFALFPETLTGAEPTSLVIAPGTCIPNAVEVSVPLKLYCNGDGEWMVPVGACTCATGHEPAAKESQCRPCPPGSYKAKQGEGPCLPCPPNSRTTSPAASICTCHNNFYRADSDSADSACTTVPSPPRGVISNVNETSLILEWSEPRDLGGRDDLLYNVICKKCHGAGGASACSRCDDNVEFVPRQLGLTERRVHISHLLAHTRYTFEVQAVNGVSGKSPLPPRYAAVNITTNQAAPSEVPTLRLHSSSGSSLTLSWAPPERPNGVILDYEMKYFEKSEGIASTVTSQMNSVQLDGLRPDARYVVQVRARTVAGYGQYSRPAEFETTSERGSGAQQLQEQLPL
**Q.** How did the Kd [5] turn out when B4 was run?
**A.** 108 nM

B5: humanized anti-EFNA4 antibody huE47 (antibody, human IgG1, kappa, V domains shown)
VH: QVQLVQSGAEVKKPGASVKVSCKASGYTFTYFYMNWVRQAPGQGLEWVGQINPNNGGTAYAQKFQGRVTMTRDTSTSTVYMELSSLRSEDTAVYYCARWVGTHYFDYWGQGTTLTVSS
VL: EIVLTQSPATLSLSPGERATLSCRASQSVSSSSYTYIHWYQQKPGQAPRLLINFASNLESGIPARFSGSGSGTDFTLTISSLEPEDFAVYYCQHSWEIPPTFGGGTKLEIKR
notes: human IgG1 / kappa
**Q.** Which Kd [11] does the source give for B5 here?
**A.** < 0.1 nM

**Q.** Does B5 bind [17]?
**A.** no binding (tested: 1000 ng/ml)

**Q.** Does B5 bind [18]?
**A.** no binding (tested: 1000 ng/ml)

B6: humanized anti-EFNA4 antibody huE15 (antibody, human IgG1, V domains shown)
VH: EVQLVESGGGLVKPGGSLRLSCAASGFTFSTYGMSWVRQAPGKGLEWVATISSGGTYTYYPDSVKGRFKISRDNAKNSLYLQMNSLRAEDTAVYYCTRHDPNDGYYFLFAYWGQGTLVTVSS
VL: EIVLTQSPGTLSLSPGERATLSCKASQSVGNNVAWYQQKPGQAPRLLIYYASNRYTGIPDRFSGSGSGTDFTLTISRLEPEDFAVYYCQQHYSSPLTFGAGTKLEIK
**Q.** How did the Kd [11] turn out when B6 was run?
**A.** 4.8 nM
